This series is described as follows: Distribution of tritium-labelled pentapeptide after intranasal administration. Conditions: rats, tritium label. In kind it is in vivo. The procedure:
The study to determine how the medication of the invention is distributed through the body and reaches the brain was conducted on rats. Specially prepared rats were intranasally administered the pharmaceutical composition containing the pentapeptide of the invention radioactively-labelled with tritium. The animals were then euthanized at certain time intervals to be able to assess the biodistribution of the peptide in the brain and its transportation path.

No end group written: not given here.

Results on one substance are retold here after US20190269750A1, “PHARMACEUTICAL COMPOSITION AND METHOD OF TREATING FEMALE SEXUAL DYSFUNCTIONS” ("IVIX" Ltd., priority 2016, published 2019).

As to “pentapeptide of the invention radioactively-labelled with tritium: pentapeptide Thr-Lys-Pro-Arg-Pro (SEQ ID NO: 5) labelled with tritium, given intranasally in a pharmaceutical composition (TKPRP; also: tritium label, position not given here)”, the “biodistribution: delivery to the brain” value was “a significant part of the medication reached the brain undegraded”; the “biodistribution: site of detection” value is “detected in the olfactory bulbs and other parts of the brain”.
